Reference: publication PMC6856716
Like-named read-outs stand apart in the source and are kept apart here.

How the values were obtained:
[1] = target: Actin (rabbit skeletal muscle alpha actin), polymerized (F-actin) (rabbit) (UniProt P68135); assay: co-sedimentation
[2] = target: Actin (rabbit skeletal muscle alpha actin), polymerized (F-actin) (rabbit) (UniProt P68135); assay: co-sedimentation; remark: listed apart in the source

| Substance | co-sedimented talin fragment relative to talin-FL (relative to talin-FL) [1] | co-sedimented talin fragment relative to talin-FL (relative to talin-FL) [2] |
| --- | --- | --- |
| talin N-R11 (C-terminal truncation lacking R12 and the C-terminus), P26039 1-2141 | 1.1 | 1.3 |
| talin N-R12 (C-terminal truncation), P26039 1-2294 |  | 0.68 |
| talin R1-C (truncation lacking the FERM domain), P26039 482-2541 | 1.3 | 1.1 |
